The text below walks through data of patent US20190225669A1 (ACCELERON PHARMA, published 2019).

Like-named read-outs stand apart in the source and are kept apart here.

Sequences and labels used below:
B2: ALK3-Fc homodimer (Fc fusion, UniProt P36894 24-152, looked up, not shown: a dimerising Fc or GST)
chain: QNLDSMLHGTGMKSDSDQKKSENGVTLAPEDTLPFLKCYCSGHCPDDAINNTCITNGHCFAIIEEDDQGETTLASGCMKYEGSDFQCKDSPKAQLRRTIECCRTNLCNQYLQPTLPPVVIGPFFDGSIR
notes: extracellular domain

Common to all, as to assay: Biacore SPR
A general note: SPR reads the build-up and loss of mass on a sensor chip optically.

Assay [1] deals with T1, ActRIIB-Fc homodimer (UniProt Q13705 19-137).
T1 construct: extracellular domain; also called ActRIIB homodimer
T1 sequence (looked up): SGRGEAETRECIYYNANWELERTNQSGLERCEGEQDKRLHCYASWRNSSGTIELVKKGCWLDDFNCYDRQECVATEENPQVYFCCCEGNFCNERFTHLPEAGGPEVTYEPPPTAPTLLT
On the procedure: (§1) Ligands were injected and allowed to flow over the captured receptor protein.

In assay [2] the target is T1, ActRIIB-Fc homodimer. On the procedure: as §1
The source holds these as a separate data set.

For assay [3], the target named is T1, ActRIIB-Fc homodimer. On the procedure:
as §1
This is another data set of the same source.

Assay [4] addresses T1, ActRIIB-Fc homodimer. On the procedure: as §1
This is another data set of the same source.

The next assay concerns the target T2, ActRIIA-Fc homodimer (UniProt P27037 20-135).
T2 construct: extracellular domain
On the procedure: as §1

The target of assay [5] is T1, ActRIIB-Fc homodimer. On the procedure:
as §1
The source holds these as a separate data set.

For assay [6], the target named is B2. On the procedure:
as §1

Assay [7] addresses T3, BMP5 (UniProt P22003 317-454, limits assumed).
T3 sequence (looked up): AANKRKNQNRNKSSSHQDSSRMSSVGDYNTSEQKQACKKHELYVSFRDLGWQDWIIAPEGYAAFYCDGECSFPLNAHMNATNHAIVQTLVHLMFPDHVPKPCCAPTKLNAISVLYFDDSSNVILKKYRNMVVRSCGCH
On the procedure:
as §1

The target of assay [8] is T4, BMP6 (UniProt P22004 382-513, limits assumed).
T4 sequence (looked up): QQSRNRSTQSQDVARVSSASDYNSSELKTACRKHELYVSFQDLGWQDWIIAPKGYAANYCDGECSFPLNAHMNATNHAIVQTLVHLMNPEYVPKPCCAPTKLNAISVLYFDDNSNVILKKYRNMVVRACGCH
On the procedure:
as §1

Assay [9] concerns the target T3, BMP5. On the procedure: as §1
The source holds these as a separate data set.

Assay [10] deals with T4, BMP6. On the procedure: as §1
The source holds these as a separate data set.

Assay [11] concerns the target B2. On the procedure:
as §1
This is another data set of the same source.

The target in assay [12] is T5, BMPRII-Fc homodimer (UniProt Q13873 27-150).
T5 construct: extracellular domain
T5 sequence (looked up): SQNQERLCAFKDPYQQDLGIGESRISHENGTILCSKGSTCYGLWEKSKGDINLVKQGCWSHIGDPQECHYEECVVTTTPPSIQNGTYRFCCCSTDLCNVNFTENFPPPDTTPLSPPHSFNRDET
On the procedure:
as §1

The target of assay [13] is T5, BMPRII-Fc homodimer. On the procedure: A Biacore™-based binding assay was used to compare ligand binding selectivity of the BMPRII-Fc:ALK2-Fc heterodimeric complex described above with that of BMPRII-Fc and ALK2-Fc homodimeric complexes. […] Ligands were injected and allowed to flow over the captured receptor protein.
This is another data set of the same source.

The target of assay [14] is T5, BMPRII-Fc homodimer. On the procedure:
as §1
This is another data set of the same source.

Assay [15] concerns the target T5, BMPRII-Fc homodimer. On the procedure:
as §1
The source holds these as a separate data set.

T2 sequence (P27037 20-135): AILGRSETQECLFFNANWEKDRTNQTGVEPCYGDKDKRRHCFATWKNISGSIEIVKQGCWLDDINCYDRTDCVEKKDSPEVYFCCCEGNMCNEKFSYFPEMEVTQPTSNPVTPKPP

B1: GDF11 (ligand, UniProt O95390 299-407, looked up)
chain: NLGLDCDEHSSESRCCRYPLTVDFEAFGWDWIIAPKRYKANYCSGQCEYMFMQKYPHTHLVQQANPRGSAGPCCTPTKMSPINMLYFNDKQQIIYGKIPGMVVDRCGCS
notes: also called BMP11
As usually defined, the Kd is the equilibrium constant for the complex coming apart. As usually defined, the koff is the first-order rate constant of dissociation. High values mean fast dissociation, low ones slow dissociation. Usually kon stands for the second-order rate constant of association. Low values mean slower complex formation, high ones faster complex formation. As to B1, the dissociation constant (Kd) was 2 pM with ActRIIB-Fc homodimer [1]; 74 pM in the assay with ActRIIB-Fc homodimer [2]; 110 pM in the assay with ActRIIB-Fc homodimer [3]; 2 pM in the assay with ActRIIB-Fc homodimer [4]; 13 pM in the assay with ActRIIA-Fc homodimer; 2 pM with ActRIIB-Fc homodimer [5]. The koff with ActRIIB-Fc homodimer [1] came out at 0.00011 s⁻¹; with ActRIIB-Fc homodimer [2] it was 0.00014 s⁻¹; in the assay with ActRIIB-Fc homodimer [3], 0.00022 s⁻¹; with ActRIIB-Fc homodimer [4], 0.00015 s⁻¹; in the assay with ActRIIA-Fc homodimer, 0.00092 s⁻¹; with ActRIIB-Fc homodimer [5], 0.00011 s⁻¹. Besides, the kon came out at 5e+07 M⁻¹ s⁻¹ with ActRIIB-Fc homodimer [1]; 1.9e+06 M⁻¹ s⁻¹ with ActRIIB-Fc homodimer [2]; 2e+06 M⁻¹ s⁻¹ in the assay with ActRIIB-Fc homodimer [3]; 9.6e+07 M⁻¹ s⁻¹ with ActRIIB-Fc homodimer [4]; 7.3e+07 M⁻¹ s⁻¹ with ActRIIA-Fc homodimer; 5e+07 M⁻¹ s⁻¹ in the assay with ActRIIB-Fc homodimer [5]. Further, in the assay with ALK3-Fc homodimer [6], the binding result is “no binding”.
In the case of B2, the dissociation constant (Kd) with BMP5 [7] was determined as 70000 pM; with BMP6 [8] it was 35000 pM; with BMP5 [9], 70000 pM; in the assay with BMP6 [10] it was 35000 pM. Further, the dissociation rate constant (koff) with BMP5 [7] was determined as 0.002 s⁻¹; with BMP6 [8], 0.0049 s⁻¹; in the assay with BMP5 [9], 0.0023 s⁻¹; with BMP6 [10] it was 0.0049 s⁻¹. Besides, the kon in the assay with BMP5 [7] is 29000 M⁻¹ s⁻¹; with BMP6 [8], 140000 M⁻¹ s⁻¹; in the assay with BMP5 [9], 29000 M⁻¹ s⁻¹; with BMP6 [10] it was 140000 M⁻¹ s⁻¹.

B3: GDF5 (ligand, UniProt P43026 382-501, looked up)
chain: APLATRQGKRPSKNLKARCSRKALHVNFKDMGWDDWIIAPLEYEAFHCEGLCEFPLRSHLEPTNHAVIQTLMNSMDPESTPPTCCVPTRLSPISILFIDSANNVVYKQYEDMVVESCGCR
notes: also called BMP14
With B3, in the assay with ALK3-Fc homodimer [6], the Kd came out at 22000 pM, the off-rate constant (koff) was found to be 0.011 s⁻¹ and the kon stood at 480000 M⁻¹ s⁻¹. Moreover, in the assay with ALK3-Fc homodimer [11], the Kd stood at 22000 pM, the koff is 0.011 s⁻¹ and the on-rate constant (kon) came to 430000 M⁻¹ s⁻¹.

B4: GDF3 (ligand, UniProt Q9NR23 251-364, looked up)
chain: AAIPVPKLSCKNLCHRHQLFINFRDLGWHKWIIAPKGFMANYCHGECPFSLTISLNSSNYAFMQALMHAVDPEIPQAVCIPTKLSPISMLYQDNNDNVILRHYEDMVVDECGCG
In the case of B4, the dissociation constant (Kd) with ActRIIB-Fc homodimer [1] came out at 1500 pM; with ActRIIB-Fc homodimer [2] it was 3900 pM; with ActRIIB-Fc homodimer [3], 1700 pM; with ActRIIB-Fc homodimer [4], 1500 pM; with ActRIIA-Fc homodimer, 2400 pM; with ActRIIB-Fc homodimer [5], 1400 pM. Further, the koff in the assay with ActRIIB-Fc homodimer [1] was determined as 0.0022 s⁻¹; with ActRIIB-Fc homodimer [2], 0.0018 s⁻¹; with ActRIIB-Fc homodimer [3] it was 0.002 s⁻¹; in the assay with ActRIIB-Fc homodimer [4], 0.0022 s⁻¹; with ActRIIA-Fc homodimer it was 0.0036 s⁻¹; in the assay with ActRIIB-Fc homodimer [5], 0.0023 s⁻¹. In addition, the on-rate constant (kon) was found to be 1.4e+06 M⁻¹ s⁻¹ in the assay with ActRIIB-Fc homodimer [1]; 470000 M⁻¹ s⁻¹ with ActRIIB-Fc homodimer [2]; 1.2e+06 M⁻¹ s⁻¹ with ActRIIB-Fc homodimer [3]; 1.4e+06 M⁻¹ s⁻¹ in the assay with ActRIIB-Fc homodimer [4]; 1.5e+06 M⁻¹ s⁻¹ with ActRIIA-Fc homodimer; 1.6e+06 M⁻¹ s⁻¹ with ActRIIB-Fc homodimer [5]. The binding result in the assay with ALK3-Fc homodimer [6] is given as “no binding”.

B5: activin B (ligand, UniProt P09529 293-407, looked up)
chain: GLECDGRTNLCCRQQFFIDFRLIGWNDWIIAPTGYYGNYCEGSCPAYLAGVPGSASSFHTAVVNQYRMRGLNPGTVNSCCIPTKLSTMSMLYFDDEYNIVKRDVPNMIVEECGCA
B5: the Kd with ActRIIB-Fc homodimer [1] stood at 20 pM; in the assay with BMPRII-Fc homodimer [12] it was 3800 pM; in the assay with ActRIIB-Fc homodimer [2], 20 pM; in the assay with ActRIIB-Fc homodimer [3] it was 28 pM; with ActRIIB-Fc homodimer [4], 8 pM; with ActRIIA-Fc homodimer, 10 pM. In addition, the dissociation constant (Kd) with BMPRII-Fc homodimer [13] turned out to be 2600 pM; with ActRIIB-Fc homodimer [5], 20 pM; in the assay with BMPRII-Fc homodimer [14] it was 3800 pM. Besides, the koff with ActRIIB-Fc homodimer [1] worked out at 0.0001 s⁻¹; with BMPRII-Fc homodimer [12], 0.075 s⁻¹; with ActRIIB-Fc homodimer [2], 0.0001 s⁻¹; with ActRIIB-Fc homodimer [3] it was 0.00011 s⁻¹; in the assay with ActRIIB-Fc homodimer [4] it was 0.00016 s⁻¹; with ActRIIA-Fc homodimer, 0.00011 s⁻¹. Besides, the koff came out at 0.0049 s⁻¹ with BMPRII-Fc homodimer [13], 0.0001 s⁻¹ with ActRIIB-Fc homodimer [5] and 0.075 s⁻¹ with BMPRII-Fc homodimer [14]. The on-rate constant (kon) with ActRIIB-Fc homodimer [1] was 5.1e+06 M⁻¹ s⁻¹; with BMPRII-Fc homodimer [12], 2e+07 M⁻¹ s⁻¹; with ActRIIB-Fc homodimer [2], 5.1e+06 M⁻¹ s⁻¹; with ActRIIB-Fc homodimer [3], 3.8e+06 M⁻¹ s⁻¹; in the assay with ActRIIB-Fc homodimer [4], 1.5e+07 M⁻¹ s⁻¹; with ActRIIA-Fc homodimer, 1.1e+07 M⁻¹ s⁻¹. The results for the kon with BMPRII-Fc homodimer [13], with ActRIIB-Fc homodimer [5] and with BMPRII-Fc homodimer [14] were 1.9e+06 M⁻¹ s⁻¹, 5.1e+06 M⁻¹ s⁻¹ and 2e+07 M⁻¹ s⁻¹, respectively. In the assay with ALK3-Fc homodimer [6], the binding result was “no binding”.

B6: BMP10 (ligand, UniProt O95393 317-424, looked up)
chain: NAKGNYCKRTPLYIDFKEIGWDSWIIAPPGYEAYECRGVCNYPLAEHLTPTKHAIIQALVHLKNSQKASKACCVPTKLEPISILYLDKGVVTYKFKYEGMAVSECGCR
For B6, the dissociation constant Kd with ActRIIB-Fc homodimer [1] is 11 pM; with BMPRII-Fc homodimer [15], 100 pM; with BMPRII-Fc homodimer [12], 100 pM; with ActRIIB-Fc homodimer [2] it was 18 pM; in the assay with ActRIIB-Fc homodimer [3] it was 5 pM; with ActRIIB-Fc homodimer [4], 25 pM. Further, the equilibrium dissociation constant (Kd) in the assay with ActRIIA-Fc homodimer came to 85 pM; in the assay with BMPRII-Fc homodimer [13], 130 pM; with ActRIIB-Fc homodimer [5], 4 pM; in the assay with BMPRII-Fc homodimer [14] it was 100 pM. Further, the off-rate (koff) with ActRIIB-Fc homodimer [1] came out at 0.00026 s⁻¹; in the assay with BMPRII-Fc homodimer [15], 0.0025 s⁻¹; with BMPRII-Fc homodimer [12], 0.0025 s⁻¹; in the assay with ActRIIB-Fc homodimer [2] it was 0.00038 s⁻¹; in the assay with ActRIIB-Fc homodimer [3] it was 0.00028 s⁻¹; with ActRIIB-Fc homodimer [4] it was 0.00015 s⁻¹. The dissociation rate constant (koff) in the assay with ActRIIA-Fc homodimer worked out at 0.0025 s⁻¹; with BMPRII-Fc homodimer [13], 0.005 s⁻¹; with ActRIIB-Fc homodimer [5], 0.0002 s⁻¹; with BMPRII-Fc homodimer [14] it was 0.0025 s⁻¹. Moreover, the kon with ActRIIB-Fc homodimer [1] amounted to 2.3e+07 M⁻¹ s⁻¹; with BMPRII-Fc homodimer [15] it was 2.6e+07 M⁻¹ s⁻¹; in the assay with BMPRII-Fc homodimer [12] it was 2.6e+07 M⁻¹ s⁻¹; with ActRIIB-Fc homodimer [2], 2.1e+07 M⁻¹ s⁻¹; with ActRIIB-Fc homodimer [3], 5.4e+07 M⁻¹ s⁻¹; in the assay with ActRIIB-Fc homodimer [4] it was 5.9e+06 M⁻¹ s⁻¹. Further, the on-rate constant (kon) amounted to 2.9e+07 M⁻¹ s⁻¹ with ActRIIA-Fc homodimer, 3.8e+07 M⁻¹ s⁻¹ with BMPRII-Fc homodimer [13], 5.9e+07 M⁻¹ s⁻¹ with ActRIIB-Fc homodimer [5] and 2.6e+07 M⁻¹ s⁻¹ with BMPRII-Fc homodimer [14]. The binding result in the assay with ALK3-Fc homodimer [6] is reported as “no binding”.
